Experimental data: the DeepSol protein solubility set

Test: soluble on expression in E. coli; label from the status in PepcDB or PDB records
With “MGSDKIHHHHHHDDNEIEIPKAPVLEKAQLALAIKSEEGAVTKTGETTPTDADVNTLTVGVFGVDGWSVIYTKDATPNSDGTKDVGPQEVYAGEAHVVVVANAAPVIQTELAKAKDITDFIETTINLSDETLTKGLTMSSKVLDVTLVANTTNYIGYDDEVGDITVKDISGKEVYGAGPVPLVRDVASIALAGADIGNPENANYESKSFVLKEVFIASAKGVSSVASTEEWGTIEKDFFGDTHFGYLDYKVGLLFLTSPNNIDEGSYKKGLQTKYDALAKKHVENDPALNHEFYVYENTKGEVKSGESNVNEAYANHTLLIVKGDYTYLPQGAKESITKENCYYAIPVGEEVTIDGTEKRSKFYVQRNYKYEISLTIIGPGSEIPYDPMISTNVSASVKVEPWNVKTIHEEVE” the “soluble on expression in E. coli” value was “not soluble”. In the case of “MGSDKIHHHHHHDPLESMNRGIYKFNDTADKAVLKPIAGAYKAVLPSPIRTGVNNFFTNLGTFTSLVNNILQLELGKAMDNTGRLLINSTIGIGGLVDVASMDGVPNHRADFGQTLGKWGVGSGAYLVLPFLGPSTLRDTAGLTIDTLYFDPIQYTNHVRERNQLRMLSFIDLRSQYLPASDLIDDAALDPYIFMREAYLERRHQFVTGEASSFDDFDDDDEEVTPPEPQ”, the “soluble on expression in E. coli” value is reported as “not soluble”. With “MGSDKIHHHHHHDSVKTNTNPQQAIQGEWISYSESKINLPKTTSAADAHKLLDLTASTSEKIKFDKKKVTLATNEYDYKLGRQIIIGSYSYDYKLEHGQDILKFDTTSSDIGGNVYYRVGSKLEKEKTKEINDKEAKEKKSVTHLNEVWKAKTDIIEKSLKEAMIGTWSGHFKAVATTGQGVAWAPGMQTLTFDGGTNLSFHASSDSLTNFDQIVIHNAYASYQPNGILGLEPSDHIPVDPKKLLNIIKDLTAEQMFSRIKYIAFSYDVTTDTGTISQSFSPSELSYKNGKLSFDTALLITQCGDEGVQISGDVSKTE” the “soluble on expression in E. coli” value was “not soluble”. For “MGSDKIHHHHHHEAKGHQTVKIDTVVSADKQTFLQFPGKVKAAQDISLAFRVSGTISKIHVKDGARVQEGQLLAELDPTDYQVQLDATEAEYQQIKAEAERVMALYKDNGTTPNANDKAVYGLKQITAKYKHHKDQLAYTRLYAPFNGYVQKRLFEAHETIGAGMPVIAMISGGTPEVEINLPAAEYIRREQFDNYHCTFDIYPGETYPLKLISVTPKANANQLYTMRLQVVPGTRAIPSPGMNTMVTILCRTEQENTLSVPTGAILQKEGKAYVFVFHPSSNTVHRQEVSILRLLNNGHSLITSRQLQPGEQIVSSGVHHIEDGEIVKPLSPVTNTNIGGLL”, the “soluble on expression in E. coli” value was “not soluble”. For “MGSDKIHHHHHHENLYFQGAVDLDREGRDPAYVESIVKRSQKIVDKLELTDTVAAREVTTIIANRYFKLNDIYETRDAKVKLAKETLTGDAKQEAVKAAEAEKDAALYRTHFAFPADLSLYLDAKQIDAVKDGMTYGVVMVTYKATVDMIPTLKEEEKAQIMAWLVEAREFAMDAENSNKKHAAFGKYKGRINNYLSKRGYDLVKERKAWYERIKARGGKI”, the “soluble on expression in E. coli” value was “soluble”. With “MGSDKIHHHHHHENLYFQGDSFKTKSGKELTITFIKHGSLMLTYDNHSIQVDPVSEYADYTTFPKADIILITHEHGDHLDPKAIQAVEKSDTEIIANENSQKKLGKGKVLKNGDTDTSISYMKIEAVPAYNTTPGRDKYHPRHRDNGYILTFDGLRVYIAGDTEDIPEMKDLKDIDIAFLPVNQPYTMTVSQAAKAARMFSPKILYPYHYGDTKIGELKDALKDSGIDVRIRELQ” the “soluble on expression in E. coli” value was “soluble”. With “MGSDKIHHHHHHESGDIITSDQMDEVDPVAGLNGMYAYLYKFDTMGYGDEAQHYDYGYHHILLCSDLWGQDMIQYSSKYGWYYTDYQFNQNSRAYQYISTFYFWNYLYKLIKSANDVLKTTTDDSKKEDRGQALGMRAFAYLTLVQMYQHTYAGHENAPAVPIVLETTEPDVLSNNPRASVKEVYDLIEKDLVQAHSDLSSYQRLNSTYIDQTVISGLLARMYLLKEDWTNAAKYAKEARASYGAPADKAELIDEGYIDMNKHHTWMFTSHITTDAEIVQTGIVNFISHISSTAYGYVTAGGMFKNISSELYSKIADNDIRKGWFADKDFTYEGGPMGSVALPKYANLKYMWYDLEGNNCNDLCYMRAEEMWLIEAEALAMGGNIAGGKSLLEEFVKTRQPDYVCDATDAKGIQDACWLQRRIEFWGEGIAWFDLKRLKKPIIRKYEGTNHNLDAQYDFPAEDDIFRILIPRKEIQDNNGIGEEDNNPMPNI” the “soluble on expression in E. coli” value was “not soluble”. For “MGSDKIHHHHHHETEAPQVTTSSRPAVEIKYNDPRDPFEEVNRTMWDFNYLFLDRYVIRPVAHGYKDYVPNPVRTGVNNFVYNLEEPSSLVNNTLQGKWGWAANAGGRFTVNTTIGLLGLVDVADMMGMHRKQDDFNEVLGYYGTPNGPYFMAPFYGPIVTREIASDWVDGLYFPLSELTIWQSVLKWGLKGLDARSKAIDQERLLDNALDPYAFVKDAYLQHMDYKVFDGDVPSSQADDELLDEYLDELE”, the “soluble on expression in E. coli” value was “not soluble”. In the case of “MGSDKIHHHHHHEVRSTFINFFREKKEHTYVHSSSVIPHDDPTLLFANAGMNQFKPLFLGIADPNSDLAKLKRAVNTQKCIRAGGKHNDLDDVGKDVYHHTYFEMLGNWSFGDYFKKEIITWAWELLTTVYGIPAERLYVSVFGGDEANGVPADSEARDIWRSVGVPDERILNFGMKDNFWEMGDVGPCGPCSEIHYDRIGNRDASHLVNADDPMVVEIWNLVFIQFNREEGGVLKPLPAKHIDCGLGLERLIAVMQDKTSNYDTDIFQPIFEAIHKGSGVRAYTGFIGDEDKDGVDMAYRVVADHVRTLTIALSDGGRPDNSGRGYVLRRILRRGVRYASEKLNAQPGFFASLVPVVISILGETFPELSRDPVTVMDIINDEEKQFLKTLSRGRVLFQRAVQSLPEGTMTFPGDVSWRLYDTYGFPADLTQLMAEEKGLSVDNTAFEEARRKAIETSSAGTGKFRDTLDLDVHALAELQQKGVPTTDDSPKYAYTFTGEGSDAVYKFEPCVGKILAIRRDGKFVDQLAAGEEGAILLDRTNFYAEQGGQIYDVGVLTKVNDESNEFNVSNCQVRGGYIVLVGSAEGSFSVGDQVNERFDEDRKQLIMKNHTGTHVLNYALRKVLADSDQKGSLVAPDRMRFDFTNKAGMTVQQVKKAEEYAQQLIDTKGQVYAKNSPLGEAKKVKGLRAMFDETYPDPVRVVAVGTPVEQLLQNPDAEEGQNTTVEFCGGTHLQNVSHIGRIVIASEEAIAKGIRRIVALTGPEAER”, the “soluble on expression in E. coli” value is reported as “not soluble”. With “MGSDKIHHHHHHGCSYGVGDDCLPPEEPVPIRMAIAEGKLSTRAPVTTIDASNLSNVGIYAVSEGSIAGQYPWTSTPFALNLVPSGISGSQLSFNPKLYYPLGGKRVIFYSYYPRTTATSGSNYITAPGNGVAPAYHFTLTGTEDIMYAAGTPTGSTSTMPVSLTFNHVLTQLQLNTSLLGALSSIKLLGVYNKGMLDIGNGNVTYDSSTTDITLTVPLLGSVTNTVMVPAGVASYKVEVVLLLSLLKRTYLVKPTSGNFQPGVIYTISL” the “soluble on expression in E. coli” value was “not soluble”. For “MGSDKIHHHHHHGDGNITTENIPVSEYDCLELEGGGMVVNYTQSDAPEGLEIKTDRNIFEKYEFNVENHKLKIRPKKEFRKHTNFRPTEFMVTANSRNLKKLAAAGSTHVNINSPLQAEEFEAGLAGSGIIQFHDTASFTNLKIEIAGSGDFVGHKVYCEELNGDMAGSNTIVLGGTVGIAEFSIAGSGTVRAFDCTMDELECKIAGSGDIEAFVVNKIKAEIAGSGSVKYKGDPQDIQKKVMGSGKIEKVE”, the “soluble on expression in E. coli” value was “not soluble”. With “MGSDKIHHHHHHGNLGKYSIYYAQNLPHETGTNSVMTAVFKHLGDVYIPYNSLDNDGNKMLETEDKTIHYQAGGMFSPTMITVKSTKDGDVLLSLQSDSQFPYCIYDFTENTYYGFNRAGTLVAEFIDSNTNVLSSHRVSALNTVNKLQNEMYGPIISHRKVPKINLQFIYNFVNEGKFK” the “soluble on expression in E. coli” value was “not soluble”.
